The term IC50 denotes the concentration that gives 50% inhibition.

The results in this text go back to patent publication US20240279288A1, “APPLICATION OF PLANT JAZ PROTEINS AND DERIVED POLYPEPTIDES IN PREVENTION AND TREATMENT OF HUMAN AND ANIMAL TUMORS” (ANYANG INSTITUTE OF SINO-COTTON INDUSTRY INNOVATION, priority 2021, published 2024).

One assay concerns the target T1, D3 domain deficient uPAR (Homo sapiens, UniProt Q03405, DEL192-274).
T1 construct: expressed in transfected cells; host or cells: yeast Y2HGold
The experiment in a line: Yeast two hybrid with D3 domain deficient uPAR. In kind it is binding.
Text: […]

The subject of assay [1] is cervical cancer cells Hela. The experiment in a line: CCK8 cell viability detection, Hela. In kind it is cell-based, human. As to conditions: CCK8, 24 h treatment; read-out: IC50, inhibition of Hela cells. As for the experimental part:
CCK8 cell viability detection: cell suspension was seeded in 96-well plates at a concentration of 5×10^4 cells/ml (100 μL/well). The plates were placed in the incubator for pre-culture (at 37° C., 5% CO2), and control and protein agents were added to each well 24 h after seeding. The plates were then placed in the incubator for 24 h, followed by addition of 10 μL CCK8 solution into each well and incubation of the plates in the incubator for 0.5-2 h before the absorbance measurement at 450 nm using a microplate reader.
Analysis of effect of GhJAZ1 protein on the cell cycle and apoptosis of tumor cells

The next assay concerns the target T2, c-Myc-150aa (Homo sapiens, UniProt P01106).
T2 construct: expressed in transfected cells
Description: Yeast two hybrid and LUC with c-Myc truncated to first 150 amino acids. In kind it is binding.
Text: […]

Assay [2] has as its system downstream genes of c-Myc in MCF7 cells. The experiment in a line: Transcriptome sequencing and RT-PCR of c-Myc downstream genes, MCF7. It counts as cell-based, human. The method, then: Identification at the RNA level: RNA was extracted using RNA extraction kit (RNAprep Pure Polysaccharide Polyphenol Plant Total RNA Extraction Kit (DP441), manufacturer: TIANGEN BIOTECH (BEIJING) CO., LTD.), and then cDNA was obtained using two-step reverse transcription kit (a third-generation premix for two-step de-genomization and reverse transcription, Cat. No.: MR05201). cDNA as a template was added into a 96-well plate, with addition of SYBR®Green I chimeric dye (an antibody dye quantitative PCR premix, Cat. No.: MQ10101) and gene primers for three-step qPCR amplification. Finally, the relative gene expression was calculated based on the Ct value.
And it was validated to be consistent with the transcriptome results (B in FIG. 9) by RT-PCR (the steps of method as Example 1). Wherein, the sequences of RT-PCR primers were as follows: […]
Wherein, the sequences of primers were as follows: […]

In assay [3] the test system is normal breast epithelial cells MCF10A. The experiment in a line: Apoptosis detection (Annexin V-FITC/PI), MCF10A. It counts as cell-based. As to conditions: 0.691 μM, 24 h, vs PBS. The method, then: Apoptosis detection: cells were collected in 1.5 EP tubes and centrifuged at 300 g for 5 min, with the supernatant discarded, followed by collecting the cells, washing with PBS and resuspending. 1×10^5 resuspended cells were taken and centrifuged at 300 g for 5 min, with the supernatant discarded. The cells were washed with PBS, resuspended by adding 500 μl of diluted 1×Annexin V Binding Buffer working solution, and then a staining solution of 5 μL of Annexin V-FITC and 5 μL of propidium iodide (PI) were added and mixed well by vortex, followed by incubation at room temperature in the dark for 15-20 min, and detection on the instrument. Specifically, the Annexin V-FITC/PI fluorescent dual staining cell apoptosis detection kit (Wuhan Pricella Life Science & Technology Co., Ltd., Cat. No.: P-CA-201) was used.

T2 sequence (P01106 1-150): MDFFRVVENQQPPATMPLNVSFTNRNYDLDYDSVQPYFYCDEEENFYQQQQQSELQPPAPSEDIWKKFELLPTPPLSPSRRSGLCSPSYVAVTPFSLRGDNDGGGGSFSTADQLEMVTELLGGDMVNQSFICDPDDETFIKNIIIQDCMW
T1 sequence (Q03405 with tags, fused parts or gaps DEL192-274): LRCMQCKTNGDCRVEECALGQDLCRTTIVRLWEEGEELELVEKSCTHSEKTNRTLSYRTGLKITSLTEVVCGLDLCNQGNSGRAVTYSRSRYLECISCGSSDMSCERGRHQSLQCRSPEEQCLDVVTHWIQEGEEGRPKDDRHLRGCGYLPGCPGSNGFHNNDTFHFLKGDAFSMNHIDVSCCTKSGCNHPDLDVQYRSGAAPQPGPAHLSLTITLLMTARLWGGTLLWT

B1: GhJAZ1: cotton JAZ1 protein, gene number Gh_A05G0260, sequence SEQ ID No. 4; prokaryotically expressed with His tag, about 30 KD (protein)
chain: MSSCSESTAMKPARSPEKPSFAQTCNLLSQYLKEKGSFGDLSLGMTCNVEANGTPVVPPPTMNLFPLNDKSDDVCGRNGGNPKNLTSMDLFPQQAGLASKDDSPNKLEPQTAPMTIFYGGQVIVFNDFPANKAKEIMLLASNSSSQSNNSFNPIPFTSSIARSPIESSIGVPPTSKPVHPAQRAVPGDLPIARRASLHRFLEKRKDRITAKAPYQINNSAAAPSLSGDNKSWLGLAAQSP
modifications: His tag
notes: prokaryotically expressed with His tag, about 30 KD
With B1, the “interaction with D3 domain deficient uPAR” value with D3 domain deficient uPAR is “significantly weakened to none”. Also, the 50% inhibitory concentration (IC50) in assay [1] is 553 nM. The “interaction with first 150 amino acids truncated c-Myc” value in the assay with c-Myc-150aa is reported as “strong interactions”. In addition, the “expression of cell cycle-related genes (transcriptome, validated by RT-PCR)” value in assay [2] (MCF7, 0.691 μM, 24 h) is on record as “down regulated”. Further, in assay [2] (MCF7, RT-PCR), the “expression of CCNE1” value was “extremely significantly upregulated”; the “expression of P21 gene” value is on record as “extremely significantly upregulated”; the “expression of apoptosis related genes Bcl2, BAX, HK2, FASN, MCM5 downstream of c-Myc” value was “extremely significantly downregulated”; the “expression of cell cycle-related genes CCNA2, CCNB1, CCND1” value is listed as “extremely significantly downregulated”. The “effect on apoptosis of normal cells (MCF10A)” value in assay [3] is recorded as “no significant effect”.
